B1: Mt-Ku (Mycobacterium tuberculosis Ku-like protein, ORF Rv0937c), recombinant histidine-tagged (other)
chain: MRAIWTGSIAFGLVNVPVKVYSATADHDIRFHQVHAKDNGRIRYKRVCEACGEVVDYRDLARAYESGDGQMVAITDDDIASLPEERSREIEVLEFVPAADVDPMMFDRSYFLEPDSKSSKSYVLLAKTLAETDRMAIVHFTLRNKTRLAALRVKDFGKREVMMVHTLLWPDEIRDPDFPVLDQKVEIKPAELKMAGQVVDSMADDFNPDRYHDTYQEQLQELIDTKLEGGQAFTAEDQPRLLDEPEDVSDLLAKLEASVKARSKANSNVPTPP

Legend:
[1] = target: Mt-Lig expressed in yeast as amino-terminal Myc epitope-NLS fusion protein (pNLS16) (Mycobacterium tuberculosis) (UniProt P9WNV3); assay: cell-based or functional assay
[2] = target: Mt-Lig (Mycobacterium tuberculosis ATP-dependent ligase, ORF Rv0938), recombinant histidine-tagged (Mycobacterium tuberculosis, UniProt P9WNV3 1-759); assay: cell-based or functional assay
Sequence of Mt-Lig (Mycobacterium tuberculosis ATP-dependent ligase, ORF Rv0938), recombinant histidine-tagged (P9WNV3 whole entry): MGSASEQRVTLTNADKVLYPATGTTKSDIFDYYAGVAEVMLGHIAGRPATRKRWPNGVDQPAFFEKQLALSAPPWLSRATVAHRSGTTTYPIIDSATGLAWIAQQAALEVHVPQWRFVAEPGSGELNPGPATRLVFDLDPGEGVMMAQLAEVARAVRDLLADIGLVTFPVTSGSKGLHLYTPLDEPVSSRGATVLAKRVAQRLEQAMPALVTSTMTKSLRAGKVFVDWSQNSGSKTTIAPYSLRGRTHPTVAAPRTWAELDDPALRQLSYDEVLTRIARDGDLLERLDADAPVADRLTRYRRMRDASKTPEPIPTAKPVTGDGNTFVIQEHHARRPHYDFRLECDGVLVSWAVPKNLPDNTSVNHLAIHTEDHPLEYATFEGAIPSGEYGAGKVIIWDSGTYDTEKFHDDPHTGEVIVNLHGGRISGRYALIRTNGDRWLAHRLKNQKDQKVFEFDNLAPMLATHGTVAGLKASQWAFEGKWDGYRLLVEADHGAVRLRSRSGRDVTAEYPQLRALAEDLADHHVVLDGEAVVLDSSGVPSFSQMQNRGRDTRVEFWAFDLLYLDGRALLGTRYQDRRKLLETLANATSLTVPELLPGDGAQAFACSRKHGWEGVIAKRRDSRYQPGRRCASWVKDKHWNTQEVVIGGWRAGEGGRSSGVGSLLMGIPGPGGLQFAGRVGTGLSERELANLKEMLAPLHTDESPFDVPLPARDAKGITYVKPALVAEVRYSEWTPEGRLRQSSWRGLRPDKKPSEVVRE

Sequence of Mt-Lig expressed in yeast as amino-terminal Myc epitope-NLS fusion protein (pNLS16) (Mycobacterium tuberculosis) (P9WNV3 whole entry, the tested form may be a part): as the sequence (P9WNV3 whole entry) above

| Molecule | NHEJ frequency in yku70 mutant yeast (suicide deletion assay) (% of the wild-type yeast level) [1] | DNA ligation activity of Mt-Lig on dsDNA fragments upon addition of Mt-Ku [2] [fold] | activity of Mt-Lig in an in vitro plasmid repair assay [2] [fold] |
| --- | --- | --- | --- |
| Mt-Ku expressed in yeast as amino-terminal Myc epitope-NLS fusion protein (pNLS15) (from UniProt P9WKD8 1-273) | 50 |  |  |
| B1 |  | > 30 | 20 |

Source: patent US20110318789A1 (CAMBRIDGE ENTERPRISE, published 2011)
